Test results published in US9993529B2, “Stable formulations of a hyaluronan-degrading enzyme” (Halozyme, Inc., priority 2011, dated 2018).

Test: RP-HPLC insulin percent purity
Format: physicochemical
Description: Apparent solubility was measured as the percent insulin recovery as compared to the initial formulations/conditions.
To determine the apparent solubility, the peak area of insulin/insulin analog main peak and desamido peak were integrated and combined together to calculate the percentage relative to the standards. […] The data were processed using Design-Expert® 7.0 (StatEase) and the “historical data” feature. Insulin percent purity was expressed as the percent of main insulin versus all insulin species.

Regular Insulin: mature human insulin, SEQ ID NOS: 103 and 104
Percent of insulin main peak (50 mM NaCl, pH 7.0, 0 months at 2-8° C.): 97.64% | Percent of insulin main peak (50 mM NaCl, pH 7.0, 0.25 months at 2-8° C.): 97.59% | Percent of insulin main peak (50 mM NaCl, pH 7.0, 0.5 months at 2-8° C.): 97.50% | Percent of insulin main peak (50 mM NaCl, pH 7.0, 1 month at 2-8° C.): 97.44% | Percent of insulin main peak (50 mM NaCl, pH 7.0, 3 months at 2-8° C.): 97.24% | Percent of insulin main peak (50 mM NaCl, pH 7.0, 5 months at 2-8° C.): 97.73% | Percent of insulin main peak (50 mM NaCl, pH 7.0, 9 months at 2-8° C.): 97.20% | Percent of insulin main peak (50 mM NaCl, pH 7.2, 0 months at 2-8° C.): 97.64% | Percent of insulin main peak (50 mM NaCl, pH 7.2, 0.25 months at 2-8° C.): 97.59% | Percent of insulin main peak (50 mM NaCl, pH 7.2, 0.5 months at 2-8° C.): 97.56% | Percent of insulin main peak (50 mM NaCl, pH 7.2, 1 month at 2-8° C.): 97.46% | Percent of insulin main peak (50 mM NaCl, pH 7.2, 3 months at 2-8° C.): 97.47% | Percent of insulin main peak (50 mM NaCl, pH 7.2, 5 months at 2-8° C.): 97.75% | Percent of insulin main peak (50 mM NaCl, pH 7.2, 9 months at 2-8° C.): 97.27% | Percent of insulin main peak (50 mM NaCl, pH 7.4, 0 months at 2-8° C.): 97.58% | Percent of insulin main peak (50 mM NaCl, pH 7.4, 0.25 months at 2-8° C.): 97.54% | Percent of insulin main peak (50 mM NaCl, pH 7.4, 0.5 months at 2-8° C.): 97.48% | Percent of insulin main peak (50 mM NaCl, pH 7.4, 1 month at 2-8° C.): 97.47% | Percent of insulin main peak (50 mM NaCl, pH 7.4, 3 months at 2-8° C.): 97.45% | Percent of insulin main peak (50 mM NaCl, pH 7.4, 5 months at 2-8° C.): 97.74% | Percent of insulin main peak (50 mM NaCl, pH 7.4, 9 months at 2-8° C.): 97.27% | Percent of insulin main peak (50 mM NaCl, pH 7.6, 0 months at 2-8° C.): 97.65% | Percent of insulin main peak (50 mM NaCl, pH 7.6, 0.25 months at 2-8° C.): 97.58% | Percent of insulin main peak (50 mM NaCl, pH 7.6, 0.5 months at 2-8° C.): 97.33% | Percent of insulin main peak (50 mM NaCl, pH 7.6, 1 month at 2-8° C.): 97.44% | Percent of insulin main peak (50 mM NaCl, pH 7.6, 3 months at 2-8° C.): 97.35% | Percent of insulin main peak (50 mM NaCl, pH 7.6, 5 months at 2-8° C.): 97.66% | Percent of insulin main peak (50 mM NaCl, pH 7.6, 9 months at 2-8° C.): 97.34% | Percent of insulin main peak (80 mM NaCl, pH 7.0, 0 months at 2-8° C.): 97.65% | Percent of insulin main peak (80 mM NaCl, pH 7.0, 0.25 months at 2-8° C.): 97.50% | Percent of insulin main peak (80 mM NaCl, pH 7.0, 0.5 months at 2-8° C.): 97.30% | Percent of insulin main peak (80 mM NaCl, pH 7.0, 1 month at 2-8° C.): 97.20% | Percent of insulin main peak (80 mM NaCl, pH 7.0, 5 months at 2-8° C.): 97.81% | Percent of insulin main peak (80 mM NaCl, pH 7.0, 9 months at 2-8° C.): 96.18% | Percent of insulin main peak (80 mM NaCl, pH 7.2, 0 months at 2-8° C.): 97.57% | Percent of insulin main peak (80 mM NaCl, pH 7.2, 0.25 months at 2-8° C.): 97.59% | Percent of insulin main peak (80 mM NaCl, pH 7.2, 0.5 months at 2-8° C.): 97.30% | Percent of insulin main peak (80 mM NaCl, pH 7.2, 1 month at 2-8° C.): 97.45% | Percent of insulin main peak (80 mM NaCl, pH 7.2, 3 months at 2-8° C.): 97.34% | Percent of insulin main peak (80 mM NaCl, pH 7.2, 5 months at 2-8° C.): 97.64% | Percent of insulin main peak (80 mM NaCl, pH 7.4, 0 months at 2-8° C.): 97.56% | Percent of insulin main peak (80 mM NaCl, pH 7.4, 0.25 months at 2-8° C.): 97.61% | Percent of insulin main peak (80 mM NaCl, pH 7.4, 0.5 months at 2-8° C.): 97.51% | Percent of insulin main peak (80 mM NaCl, pH 7.4, 1 month at 2-8° C.): 97.43% | Percent of insulin main peak (80 mM NaCl, pH 7.4, 3 months at 2-8° C.): 97.43% | Percent of insulin main peak (80 mM NaCl, pH 7.4, 5 months at 2-8° C.): 97.75% | Percent of insulin main peak (80 mM NaCl, pH 7.4, 9 months at 2-8° C.): 97.29% | Percent of insulin main peak (80 mM NaCl, pH 7.6, 0 months at 2-8° C.): 97.63% | Percent of insulin main peak (80 mM NaCl, pH 7.6, 0.25 months at 2-8° C.): 97.62% | Percent of insulin main peak (80 mM NaCl, pH 7.6, 0.5 months at 2-8° C.): 97.52% | Percent of insulin main peak (80 mM NaCl, pH 7.6, 1 month at 2-8° C.): 97.37% | Percent of insulin main peak (80 mM NaCl, pH 7.6, 3 months at 2-8° C.): 97.64% | Percent of insulin main peak (80 mM NaCl, pH 7.6, 5 months at 2-8° C.): 97.67% | Percent of insulin main peak (80 mM NaCl, pH 7.6, 9 months at 2-8° C.): 97.31% | Percent of insulin main peak (110 mM NaCl, pH 7.0, 0 months at 2-8° C.): 97.64% | Percent of insulin main peak (110 mM NaCl, pH 7.0, 0.25 months at 2-8° C.): 97.31% | Percent of insulin main peak (110 mM NaCl, pH 7.0, 0.5 months at 2-8° C.): 97.57% | Percent of insulin main peak (110 mM NaCl, pH 7.0, 1 month at 2-8° C.): 96.64% | Percent of insulin main peak (110 mM NaCl, pH 7.0, 3 months at 2-8° C.): 96.10% | Percent of insulin main peak (110 mM NaCl, pH 7.0, 5 months at 2-8° C.): 97.79% | Percent of insulin main peak (110 mM NaCl, pH 7.2, 0 months at 2-8° C.): 97.62% | Percent of insulin main peak (110 mM NaCl, pH 7.2, 0.25 months at 2-8° C.): 97.46% | Percent of insulin main peak (110 mM NaCl, pH 7.2, 0.5 months at 2-8° C.): 97.35% | Percent of insulin main peak (110 mM NaCl, pH 7.2, 3 months at 2-8° C.): 97.49% | Percent of insulin main peak (110 mM NaCl, pH 7.2, 5 months at 2-8° C.): 97.61% | Percent of insulin main peak (110 mM NaCl, pH 7.2, 9 months at 2-8° C.): 95.91% | Percent of insulin main peak (110 mM NaCl, pH 7.4, 0 months at 2-8° C.): 97.65% | Percent of insulin main peak (110 mM NaCl, pH 7.4, 0.25 months at 2-8° C.): 97.58% | Percent of insulin main peak (110 mM NaCl, pH 7.4, 0.5 months at 2-8° C.): 97.39% | Percent of insulin main peak (110 mM NaCl, pH 7.4, 1 month at 2-8° C.): 97.36% | Percent of insulin main peak (110 mM NaCl, pH 7.4, 3 months at 2-8° C.): 97.36% | Percent of insulin main peak (110 mM NaCl, pH 7.4, 5 months at 2-8° C.): 97.79% | Percent of insulin main peak (110 mM NaCl, pH 7.4, 9 months at 2-8° C.): 96.91% | Percent of insulin main peak (110 mM NaCl, pH 7.6, 0 months at 2-8° C.): 97.58% | Percent of insulin main peak (110 mM NaCl, pH 7.6, 0.25 months at 2-8° C.): 97.57% | Percent of insulin main peak (110 mM NaCl, pH 7.6, 0.5 months at 2-8° C.): 97.60% | Percent of insulin main peak (110 mM NaCl, pH 7.6, 1 month at 2-8° C.): 97.52% | Percent of insulin main peak (110 mM NaCl, pH 7.6, 3 months at 2-8° C.): 97.42% | Percent of insulin main peak (110 mM NaCl, pH 7.6, 5 months at 2-8° C.): 97.61% | Percent of insulin main peak (110 mM NaCl, pH 7.6, 9 months at 2-8° C.): 97.31% | Percent of insulin main peak (140 mM NaCl, pH 7.0, 0 months at 2-8° C.): 97.65% | Percent of insulin main peak (140 mM NaCl, pH 7.0, 0.25 months at 2-8° C.): 97.15% | Percent of insulin main peak (140 mM NaCl, pH 7.0, 1 month at 2-8° C.): 96.39% | Percent of insulin main peak (140 mM NaCl, pH 7.0, 3 months at 2-8° C.): 96.16% | Percent of insulin main peak (140 mM NaCl, pH 7.0, 9 months at 2-8° C.): 95.17% | Percent of insulin main peak (140 mM NaCl, pH 7.2, 0 months at 2-8° C.): 97.56% | Percent of insulin main peak (140 mM NaCl, pH 7.2, 0.25 months at 2-8° C.): 97.37% | Percent of insulin main peak (140 mM NaCl, pH 7.2, 1 month at 2-8° C.): 96.62% | Percent of insulin main peak (140 mM NaCl, pH 7.2, 3 months at 2-8° C.): 96.60% | Percent of insulin main peak (140 mM NaCl, pH 7.2, 9 months at 2-8° C.): 95.49% | Percent of insulin main peak (140 mM NaCl, pH 7.4, 0 months at 2-8° C.): 97.64% | Percent of insulin main peak (140 mM NaCl, pH 7.4, 0.25 months at 2-8° C.): 97.57% | Percent of insulin main peak (140 mM NaCl, pH 7.4, 0.5 months at 2-8° C.): 97.33% | Percent of insulin main peak (140 mM NaCl, pH 7.4, 1 month at 2-8° C.): 97.23% | Percent of insulin main peak (140 mM NaCl, pH 7.4, 3 months at 2-8° C.): 97.38% | Percent of insulin main peak (140 mM NaCl, pH 7.4, 5 months at 2-8° C.): 97.73% | Percent of insulin main peak (140 mM NaCl, pH 7.4, 9 months at 2-8° C.): 96.10% | Percent of insulin main peak (140 mM NaCl, pH 7.6, 0 months at 2-8° C.): 97.64% | Percent of insulin main peak (140 mM NaCl, pH 7.6, 0.25 months at 2-8° C.): 97.61% | Percent of insulin main peak (140 mM NaCl, pH 7.6, 0.5 months at 2-8° C.): 97.41% | Percent of insulin main peak (140 mM NaCl, pH 7.6, 1 month at 2-8° C.): 97.51% | Percent of insulin main peak (140 mM NaCl, pH 7.6, 3 months at 2-8° C.): 97.35% | Percent of insulin main peak (140 mM NaCl, pH 7.6, 5 months at 2-8° C.): 97.56% | Percent of insulin main peak (140 mM NaCl, pH 7.6, 9 months at 2-8° C.): 97.07% | insulin main peak percentage (regular insulin/rHuPH20, long term storage at 2-8° C.): about 97%
